The source of these data is patent US20200317776A1 (published 2020).

Numbering of substitutions follows the chain as printed.

T1: human TREM2 expressed on cells (human, UniProt Q9NZC2 19-230)
T1 construct: BW5147.G.1.4 cells stably expressing human TREM2 together with Dap12, or endogenous TREM2 of primary human myeloid cells; also called huT2 BW; hTREM2 expressing cell line
T1 sequence: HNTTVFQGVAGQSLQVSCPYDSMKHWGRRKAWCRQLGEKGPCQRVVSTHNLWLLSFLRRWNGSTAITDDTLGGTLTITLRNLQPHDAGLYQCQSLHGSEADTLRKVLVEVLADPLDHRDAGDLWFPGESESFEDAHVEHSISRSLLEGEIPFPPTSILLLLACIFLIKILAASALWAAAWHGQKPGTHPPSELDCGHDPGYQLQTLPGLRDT

T2: human TREM2 Fc fusion (entire TREM2 ECD; only one Fc arm fused to TREM2) (human, UniProt Q9NZC2 19-174)
T2 construct: also called huTREM2-Fc; recombinant hTREM2
T2 sequence: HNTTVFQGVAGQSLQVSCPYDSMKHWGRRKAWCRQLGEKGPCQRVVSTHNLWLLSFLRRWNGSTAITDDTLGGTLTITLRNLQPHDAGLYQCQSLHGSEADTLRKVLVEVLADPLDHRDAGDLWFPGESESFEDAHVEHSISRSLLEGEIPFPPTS

T3: cynomolgus monkey TREM2 Fc fusion (entire TREM2 ECD; only one Fc arm fused to TREM2) (cynomolgus monkey, UniProt Q9NZC2 19-174 (human entry))
T3 construct: also called cyno TREM2-Fc
T3 chain: T2 sequence with A10E, W60R, L89F, F125V

B1: AL2p-8 (antibody, V domains shown)
VH: QVQLVQSGAEVKKPGSSVKVSCKASGYAFSLSWMNWVRQAPGQGLEWMGRIYPGDGDTNYARKFQGRVTITADESTSTAYMELSSLRSEDTAVYYCARLLRNQPGSSYAMDYWGQGTLVTVSS
VL: GVVMTQTPLSLSVTPGQPASISCRSSQSLIHSNGYTYLHWYLQKPGQSPQLLIYKVSNRRSGVPDRFSGSGSGTDFTLKISRVEAEDVGVYYCSQSTRVPYTFGQGTKLEIK
notes: Fab and IgG formats under one id
B2: AL2p-15 (antibody, V domains shown)
VH: B1 VH with L31S, S32H, R62Q, S106E
VL: B1 VL with Q27S, I30V, R60K
notes: as for B1
B3: AL2p-29 (antibody, V domains shown)
VH: B1 VH with L31S, S32Q, R62Q, S106E
VL: B1 VL with Q27R, I30V, R60F
notes: as for B1
B4: AL2p-26 (antibody, V domains shown)
VH: B1 VH with L31S, S32H, D55G, R62Q, F64R, S106E
VL: B1 VL
notes: as for B1
B5: AL2p-36 (antibody, V domains shown)
VH: B1 VH with S16A, L31S, G44R, M48I, E74T, T76A, S106A
VL: DVVMTQSPDSLAVSLGERATINCRSSQSLVHSNGYTYLHWYQQKPGQSPKLLIYKVSNRFSGVPDRFSGSGSGTDFTLTISSLQAEDVAVYYCSQSTRVPYTFGGGTKVEIK
notes: as for B1
B6: AL2p-23 (antibody, V domains shown)
VH: B1 VH with L31S, S32H, D57Q, R62Q, F64R, S106E
VL: B1 VL with S25T, I30V, R60V
notes: as for B1
B7: AL2p-9 (antibody, V domains shown)
VH: B1 VH with L31R, R62Q, S106A
VL: B1 VL with S25T, I30V, R60V
notes: as for B1
B8: AL2p-16 (antibody, V domains shown)
VH: B1 VH with L31S, S32H, R62Q, Q65R, S106A
VL: B1 VL with S25T, I30V, R60V
notes: as for B1
B9: AL2p-35 (antibody, V domains shown)
VH: B1 VH with S16A, S30W, L31S, G44R, M48I, R62Q, E74T, T76A, S106E, M110H
VL: B5 VL
notes: as for B1
B10: AL2p-h27 (antibody, human IgG1, V domains shown)
VH: QVQLVQSGAEVKKPGASVKVSCKASGYAFSSSWMNWVRQAPGQGLEWIGRIYPGDGDTNYNGEFRVRATLTADTSTSTAYMELSSLRSEDTAVYFCARLLRNQPGESYAMDYWGQGTLVTVSS
VL: B1 VL with G1D, I30V, R60F, V88L, Y92F
notes: humanized, human IgG1; Fab and IgG formats under one id
B11: AL2p-61 huIgG1 (antibody, V domains shown)
VH: B1 VH with L31S, S32Q, D55E, S106E
VL: GVVMTQTPLSLSVTPGQPASISCRSSQSLVHSNQYTYLHWYLQKPGQSPQLLIYKVSNRRSGVPDRFSGSGSGTDFTLKISRVEAEDVGVYYCSQSTRVPYTFGQGTKLEIKR

One test addresses T1, human TREM2 expressed on cells. The test can be described thus: FACS, hTREM2 BW cells. The method in brief:
(§1)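 Cells were BW5147.G.1.4 stably expressing human TREM2 with Dap12, or human monocyte-derived dendritic cells differentiated 6 days with GM-CSF and IL-4. Antibodies bound 1 h on ice in PBS+2% FBS, then PE anti-human secondary 30 min on ice; flow cytometry read-out as mean fluorescence intensity.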
For orientation: Flow cytometry measures light scatter and fluorescence of single cells or particles in a stream.
For B1, binding was put at a Kd of 1.2 nM.
With B2, the dissociation constant (Kd) (as a rule, a measure of binding affinity in units of concentration) worked out at 2.2 nM.
Turning to B3, the Kd came out at 1.3 nM.
On to B4, for which the dissociation constant (Kd) is 1.1 nM.
Still for that read-out and setting: to B5 belongs 1.7 nM; to B6, 1.2 nM; to B7, 1.1 nM.
The same measure, in the same setting: to B8 belongs 1.2 nM.
Same read-out and setting: to B9 belongs 3.6 nM.

For the next test the target is unchanged. The test can be described thus: FACS, hTREM2 BW cells. The source holds these as a separate data set. As to the method: To examine cell binding of anti-TREM2 antibodies, recombinant, human TREM2-expressing BW5147.G.1.4 cells (ATCC® TIB48™) were established by stably expressing either mouse TREM2 or human TREM2 together with Dap12 using viral infection. Cells were harvested by scraping, washed in PBS, counted and plated on 96-well U bottom plates at 1)(10⁵ cells/well. The plates were spun at 1,400 rpm for 3 minutes and primary anti-TREM2 or control antibodies were added in FACS buffer (PBS H2% FBS) and incubated on ice for one hour. Cells were subsequently centrifuged as before and washed thrice with FACS buffer. Cells were then incubated with anti-human PE conjugated secondary antibody (BD Biosciences) in FACS buffer for 30 minutes on ice. Cells were again washed thrice with FACS buffer and analyzed on a BD FACS Canto. Binding was measured as mean fluorescence intensity in the APC channel.
B10: the “cell binding (FOB)” value turned out to be 78 FOB.

For another test, the target named is T4, human TREM2/DAP12 fusion protein (human, UniProt O43914 41-113, limits assumed). The test can be described thus: cell-based or functional assay.
T4 sequence (O43914 other isoform, or with tags, fused parts or gaps limits assumed): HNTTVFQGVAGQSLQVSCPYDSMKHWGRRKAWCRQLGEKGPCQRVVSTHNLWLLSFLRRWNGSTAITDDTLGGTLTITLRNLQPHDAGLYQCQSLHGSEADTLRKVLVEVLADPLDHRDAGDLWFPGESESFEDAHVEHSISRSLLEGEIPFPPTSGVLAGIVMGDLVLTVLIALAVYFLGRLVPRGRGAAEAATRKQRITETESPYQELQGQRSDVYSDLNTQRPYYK
For the molecule B10, the “Soluble luciferase activation at 10 µg/ml Fold over control” value stood at 7.23 fold over control.

Another test concerns the target T1, human TREM2 expressed on cells. Description: FACS, hTREM2 BW cells. The source holds these as a separate data set.
Turning to B11, the “Bmax (MFI)” value was found to be 211000 MFI and binding was put at a Kd of 0.42 nM.

For another test the target is unchanged. Description: cell-based or functional assay.
On to B1, for which the “Survival huDCs plate bound IgG, AUC” value stood at 1.09e+06 AUC.
On to B2, for which the “Survival huDCs plate bound IgG, AUC” value turned out to be 488000 AUC.
B3: the “Survival huDCs plate bound IgG, AUC” value was determined as 1.11e+06 AUC.
Same read-out and setting: in the case of B4 it was 1.11e+06 AUC; in that of B5, 1.14e+06 AUC.
Same read-out and setting: to B6 belongs 1.11e+06 AUC; to B7, 976000 AUC; to B8, 880000 AUC.
Same read-out and setting: to B9 belongs 453000 AUC.

A further test deals with T4, human TREM2/DAP12 fusion protein. Description: cell-based or functional assay. The source holds these as a separate data set.
Turning to B1, the “Luciferase activation soluble 10 nM IgG, FOC” value is 2.78 FOC.
For the molecule B2, the “Luciferase activation plate bound 33 nM IgG, FOC” value stood at 7.54 FOC and the “Luciferase activation soluble 10 nM IgG, FOC” value came out at 1.8 FOC.
For B3, in that order: 26.6 FOC and 2.17 FOC.
On the same counts, the results for B4 are 25.9 FOC and 2.59 FOC.
Turning to B5, the “Luciferase activation plate bound 33 nM IgG, FOC” value was 22.7 FOC and the “Luciferase activation soluble 10 nM IgG, FOC” value worked out at 2.64 FOC.
Consider B6, for which the “Luciferase activation plate bound 33 nM IgG, FOC” value amounted to 29.8 FOC and the “Luciferase activation soluble 10 nM IgG, FOC” value was determined as 2.53 FOC.
Take B7: the “Luciferase activation plate bound 33 nM IgG, FOC” value stood at 15.2 FOC and the “Luciferase activation soluble 10 nM IgG, FOC” value came to 2.62 FOC.
As for B8, the “Luciferase activation plate bound 33 nM IgG, FOC” value amounted to 16.9 FOC and the “Luciferase activation soluble 10 nM IgG, FOC” value came out at 2.6 FOC.
Consider B9, for which the “Luciferase activation plate bound 33 nM IgG, FOC” value came out at 5.15 FOC and the “Luciferase activation soluble 10 nM IgG, FOC” value was found to be 2.05 FOC.

The target in the next test is T1, human TREM2 expressed on cells. The test can be described thus: FACS, human DCs. The gist of the method:
as §1
With B1, the MFI worked out at 310 MFI.
Still for that read-out and setting: in the case of B2 it was 262 MFI; in that of B4, 296 MFI.
On the same count and under the same terms, to B5 belongs 240 MFI; to B7, 322 MFI; to B8, 327 MFI.
On the same count and under the same terms, in the case of B9 it was 130 MFI.

A further test has as its target T2, human TREM2 Fc fusion (entire TREM2 …). The test can be described thus: BLI, Fab, monovalent. A general note: BLI is a label-free optical method that tracks binding on a fibre tip over time.
The molecule B1 showed a Kd of 4.01 nM.
Same read-out and setting: to B2 belongs 8.85 nM.
B3 had a Kd of 6.38 nM.
B4 registered an equilibrium dissociation constant (Kd) of 3.15 nM.
Same read-out and setting: to B5 belongs 12.1 nM.
Same read-out and setting: to B6 belongs 4.35 nM; to B7, 6.44 nM.
Still for that read-out and setting: to B8 belongs 1.83 nM; to B9, 28.4 nM.

A further test has as its target T3, cynomolgus monkey TREM2 Fc fusion …. Description: BLI, Fab, monovalent.
Take B1: the affinity, expressed as Kd, was 3.1 nM.
For B2, the affinity, expressed as Kd, was 8.76 nM.
In turn, B3 showed a Kd of 6.47 nM.
Consider B4, for which binding was put at a Kd of 2.69 nM.
The same measure, in the same setting: to B5 belongs 7.38 nM.
The same measure, in the same setting: to B6 belongs 4.16 nM; to B7, 5.63 nM.
The same measure, in the same setting: in the case of B8 it was 1.36 nM; in that of B9, 24.6 nM.

For the next test, the target named is T2, human TREM2 Fc fusion (entire TREM2 …). The test can be described thus: BLI, Fab, monovalent. The source holds these as a separate data set. As to the method:
(§2) Briefly, IgG's were loaded on-line onto AHQ sensors. Sensors were equilibrated off-line in assay buffer for 30 minutes and then monitored on-line for 60 seconds for baseline establishment. For avid binding measurement, sensors with loaded IgGs were exposed to 100 nM antigen (human TREM2 Fc fusion using the entire TREM2 ECD; only one Fc arm was fused to TREM2) for 3 minutes, afterwards they were transferred to assay buffer for 3 minutes for off-rate measurement. Monovalent binding measurements were obtained by loading human TREM2 Fe fusion antigens to AHQ sensor and followed by exposure to 100 nM TREM2 antibody Fab. Kinetics data were fit using a 1:1 binding model in the data analysis software provided by ForteBio. Assay was run at room temperature (25° C.).
B10 registered an equilibrium dissociation constant (Kd) of 120 nM.

Another test concerns the target T4, human TREM2/DAP12 fusion protein. Description: cell-based or functional assay. The source holds these as a separate data set.
Take B11: the “Plate bound IgG, fold over unstimulated control (25 nM IgG)” value amounted to 8.97 fold; the “Soluble IgG, EC50” value turned out to be 5.24 nM; the “Soluble IgG, fold over control IgG (17 nM IgG)” value worked out at 10.8 fold.

A further test concerns the target T2, human TREM2 Fc fusion (entire TREM2 …). Description: BLI, IgG, avid. Here is the method: as §2, with “Briefly, IgGs” for “Briefly, IgG's”, “AHQ sensors,” for “AHQ sensors.”, “(human or cynomolgus monkey” for “(human”, “TREM2 Fe” for “TREM2 Fc”, “TREM2 Fc” for “TREM2 Fe”
Take B1: the dissociation constant (Kd) was 0.3 nM.
In turn, B2 returned a Kd of 0.538 nM.
Still for that read-out and setting: in the case of B3 it was 0.403 nM; in that of B4, 0.201 nM.
Regarding B5, binding was characterised by a dissociation constant (Kd) of 0.495 nM.
Same read-out and setting: in the case of B6 it was 0.334 nM; in that of B7, 0.349 nM.
B8: the Kd stood at 0.222 nM.
The same measure, in the same setting: to B9 belongs 1.85 nM.
